Publication PMC9015690

Target: CXCL12 locked dimer (CXCL12-LD) (UniProt P48061)
Test: ITC

CXCL12 locked dimer (CXCL12-LD), sequence (P48061 22-89 L57C/A86C): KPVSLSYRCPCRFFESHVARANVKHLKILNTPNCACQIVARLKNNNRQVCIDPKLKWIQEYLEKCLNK

B1: ACKR1^N-term, sixty-amino acid peptide corresponding to the extracellular N-terminus of ACKR1 (domain or fragment)
chain: MGNALHRAELSPSTENSSQLDFEDVWNSSYGVNDSFPDGDYGANLEAAAPAHSANLLDDS
KD of the first transition (sequential binding model): 6 nM | stoichiometry N: 1
